Biological target: the molecule itself
Assay: self-association; SDS-PAGE under reducing (Mr 26,900) versus non-reducing (Mr 114,000) conditions

B1: Rtms-5 colored protein tagged with hexahistidine at its C-terminus (other)
chain: SVIATQMTYKVYMSGTVNGHYFEVEGDGKGKPYEGEQTVKLTVTKGGPLPFAWDILSPQCQYGSIPFTKYPEDIPDYVKQSFPEGFTWERIMNFEDGAVCTVSNDSSIQGNCFTYHVKFSGLNFPPNGPVMQKKTQGWEPHSERLFARGGMLIGNNFMALKLEGGGHYLCEFKTTYKAKKPVKMPGYHYVDRKLDVTNHNKDYTSVEQCEISIARKPVVAHHHHHH
notes: also called RTms-5.pep; Rtms5.pep
**Q.** Does B1 bind?
**A.** Result: binds

Source: patent US20060107351A1 (FLORIGENE, published 2006)
